Laboratory results: the supplement of paper PMC12636428

Test system: Saccharomyces cerevisiae
Assay: transcriptional activation domain activity (GFP:mCherry ratio, weighted mean of sorted bins, harmonized to initial dataset scale) (arbitrary fluorescence ratio units); higher = stronger transcriptional activation
Conditions: beta-estradiol 1 µM; induction time 4 h
Method: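 53-aa protein tiles (fungal proteins plus yeast TF control tiles) fused C-terminally to a DBD-estrogen-binding domain-mCherry synthetic TF, integrated in S. cerevisiae (URA3 locus) with a GFP reporter. Cells were induced with 1 uM beta-estradiol for 4 h at 30 C, FACS-sorted into 8 bins by GFP:mCherry ratio and barcodes sequenced. Activity is the read-weighted mean bin fluorescence (GFP:mCherry), averaged over barcodes (median 12); tiles under 50 reads were discarded. New active-learning values were harmonized by linear fit onto the scale of the initial (Hummel et al.) dataset. The assay saturates at low and high signal.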

Row | Sequence | transcriptional activation domain activity
1 | RDARARRTRERRRGRAERAPEEGRREERRKRGRGARGGRARGGAAGRGGRGEG | 32200
2 | MHDAISFVLHLRLFAHVVGTSLSDGGPVFLALCMLPPLMRHFVSMSSNLWTTA | 70700
3 | QAARTSDYSIAQFRFLLKLLLVHGRWNYVRICKYTLGTFWKEMLFYSVQALYQ | 15400
4 | KCCVHVHQVYPYFFVEYFGKMRLRSGQLSALTFGAELQYTRVLIHVGVHFYGF | 47400
5 | TQLIELNVPMGKVGMVVDNSSDKLEIEDIVVYWSLRSRPVWLVYVRAFLKSII | 56200
6 | KQAAEEGDRPKQGGKESGEKENGKAEGSQAREKDRPADGEGKSSDEAGKAKDE | 12500
7 | LQASREEIRKKVSEDDHGLTRFRRQVVLALDLYIWEPICISLRFLRLVMIFVP | 52400
8 | MAFCSIPFYSPPPPQFRFISTFSPFPRFIIGPLFHPLLARKLFDFLLIFIVSF | 62700
9 | RWQYATLFFSGVSGGATLALSLCVITHPSLLTRIVVVCIFLTLISAFTILPIS | 38500
10 | SADIERRHHKKNHKGGANAGNAAGNNNNAGGNAGNATAAAANRRDVVEDLQSR | 13900
11 | GEEGDKPKRGRKRKEAPKDDGEDADDAEAPAAKKAKPASKPASKAAATKPASK | 34200
12 | IVEGLLGVDFIWQDNLPDLIDQFTNLLTLGLDFQAIDFHGGLSWNYLPSTFIN | 63500
13 | LANISLFTSFHQTDINWCGPTRLRWFGYCFCGMFVYYWLPGYFFQILTFFSWA | 73700
14 | KTKEGAAKNTKKSGERGKEKGLAGAKSKKSPINNSVKGKKSPSTKKTVKKAGK | 31600
15 | APAAEPVAAATIEEAPKETAEASTATEETAEEKKEEKEKKEKEKKAKLGRRLS | 30700
16 | QQPITYRKTIYDFFSWFLSLGFLNMMVPCFDLLYISRILVVWREVYYCHLIIA | 58100
17 | MRAAPKYITFFLCYGSWFTSMTRGLSCPCWVYFIGHVSIVVVVVFFTFVYIHG | 38800
18 | VVLYMLRFLGLMHIMLFSHIDQRCKDFAKVYLRGRIIRYTCPFFSRSSLHKIV | 49400
19 | KYLSTCLKSCNTQLLDGILNTFARIFLSLGHLVEIMPELGTSILFQTYLFALQ | 52900
20 | EAGAEEAAAGAGGRQEAASVEEAAREAARRRQQAEAGRGRRRRQPAGAEEAAE | 33300
21 | QILICVIYVLVAYSRDDTSWSRVCYFMPCAPQSIKERDQAFSLFAGIFSFVVV | 39200
22 | KVEIRERDARSVVKLRSGANVPVTESTHGLDGGTGQDVHILVAQTKSKKFNRH | 49800
23 | APIDCPHRRLEVIMGLRPTRHIVLSILGLVITGFVSMDRADCIEFLLDLEPGD | 39800
24 | HGTHCSGTVAGKKYGVAKKAHIKAVKVLRSNGSGSMSDVVKGVEFAAESHAGE | 38600
25 | MSKRLSFFFSGYLVLCGFSGVAFLFYFSLFNLVYYYPFLLLFNGFGGICIFLV | 56800
26 | AQKVKNESDTDERPAPVKKGRKAATSKVKDESEDEAPAPAPAKRGRRAAAVKA | 47500
27 | MPPFFFGLWRIFFFFFFFFCKQLWWTVEFVTYVSCFFFLLNKLVFWLFFFSVC | 58500

Row | Sequence | transcriptional activation domain activity
28 | PAEGAEDAGEVKKKHRKRRRKRRGDAKDAAAEGGDEPENEDGEVGEGDNAAVS | 9150
29 | MSWLVSISFMFYTFILPFYYYYKHSTTLFIYTYIYISLYIPIWFVYNHPYHLL | 43000
30 | AQLTLRAIVSSKEAGVIIGKGGKNVADLRDETGVKAGVSKVVQGVHDRVLTIT | 29600
31 | MSAPPEEVASTQSAQPTTEPALIGEPVKRGRGRPKGSKNKAKPSTAATATGEA | 34800
32 | LLSGRLFLGFYAAKNILRLARAFAATRQVIYDLGKFYRSPLTAPDRIAHLFPS | 47000
33 | SASEIRVDSFRKIMSIPLAIFTLRPRHVFVAVRRVCRSCTNYLVVLALYMALF | 51800
34 | IMGRYCAKAVWLDTRQHLLNKLSQIGFNWDVLKSLVKSWWHYYSLAVMLWLYQ | 69200
35 | LSRKASELRHATRNWALHSKHEEWNVSFRELARKYLIRPFLLMINPVCFLMSF | 74700
36 | QSNWVEGFSTHHEPFRPHKRRIKSVIDCSERTAVLVADLIGGLPCVVELKPKW | 64400
37 | AGGEAAAGGEAAAGEGAAAGGEAKAGEKAAGEGAKAGEEAAGEAKVEAAKPAA | 18400
38 | LSEPMAKNPYYYLCVLARIVVVKFAMLLRIIYGVYVPIYTYSAYCFLTDITLF | 62900
39 | SRRPAKKVKEEGEKKAASGDKKGRGKALSEKSKPDAKGSKAKSKHKKDSDSEE | 24900
40 | MPHTHLIFESCFFIVFSPNDLLTTDYLFFLPFPFPFPFPFLFPFPFLFPFLFL | 63100
41 | FFFFVIFSLFHLPFACIFRFFPNDLFACYLYSPFFFPIDFCPFALFPPFFLSF | 59500
42 | SAFGSSANAPTSGGFGAFGQPVAAAATTSAFGSTTPFGAAAPSPAAPAAAASP | 25700
43 | LIYNVCTFSLFWIVYRYNLLYVNNFRFDTSGLLFPRALDQLFTGIYVMAVCLI | 89400
44 | EAEDTAAARLKRAKSERMRLRTRVVQAMWAEASEEERGAAEAEVAREKEAIRA | 30400
45 | GQSRGTTSGTIATGLCAGLSRGIAESVELQKRIDFALAGYFRYIRWWRLGFMS | 69900
46 | MGLGFFSFFLSVFSFFLFPFFFFGCEFIYLFLVFWWRVDFSPMAERHSVEAGP | 53000
47 | RCWFILLYVMPNIAGTFGLRYVPLQNHVARLWCYYLTGPYNASFVLTLSLVIA | 37400
48 | YNIRAKGFNIFNITISVGLIFNQYVNPIALAVLTWKYYVVYCAWLLCEVLFLY | 81900
49 | LGFIEIVRVCPRFGILFLCMALSFISIVVDLLSVTPVIPIGVINPFWKFAFVF | 58100
50 | LWPLPVITRYIIGISLLVSMLNFMGLLHLKCSSPSYVIHRLEIANLLMSPFLF | 46200
51 | IFFCHGRFLTSRSFWAFLLSLFLLIAPSILFLVFTCPWLWFHMSPSIPIVFSY | 51200
52 | EAGNERRESSRRHDDTERRERRRHRSHDRGHDRERRHRRHRRSRSRDRDGGRE | 34300
53 | RAYGLLKRYILVPATFGYRCAQNIGWCTIPPRVQSLTIFAFVILNLILCCISY | 58000
54 | RNVEDCAATNGSLVPISMPGGKREENDRRVPRANVSKVIILGSGGLSIGQAGE | 44500

Row | Sequence | transcriptional activation domain activity
55 | LLGMFAQLAFADYVMTPSQARLALFVFERLLKLLRAAPYPCVRVAILQLLMWL | 45500
56 | LSPGKPHQGMVRVRSPNNMVAFVNLLVRLCDLGFPAHWISDYVQSMLMDKVVT | 66400
57 | GRIMERSGGWLVLVSHFSYFLNWVLVLFLLFFGGYAYVYYLCISSLLFPFTSF | 48800
58 | LQLAFYFGFIMVFVCSYMKRNTLVLLLFLLNNLCMVFRFYASDLLYQYWLIPV | 61800
59 | MHKHFVVTLIMFFYFFFLFLLRGRCWNCTPLPTLIPSTASGVLLIVFLSYVVH | 26400
60 | TYTPPVEKPDVEEQSRTRLIGLAALNGASSSEGAFSSSTEFPRQVRVIVPALL | 39800
61 | SFSSIIILLALCLVLLAVFFYFPFFFCLFCPYVLCCHPIFPPTLSQVSILAYY | 44700
62 | ALLSSLHFGLGSHFRDIILKHPQWLIPLMRWLYIQNATYFNCSGIVKMSLLFQ | 46400
63 | QAEDSNDNDNNNKAAAEEEEEEGGGERSGPMVNGNGGGGAEGMVNGASAVGRD | 14800
64 | ASKEGEREKEGGREKEGNEGKKEGDKEEGEKKEGTDKEEEEKGGEKGKGSGEE | 47900
65 | SMHCGVVPCCFFVCLCLISFVYLEISIIFLGHSFFLSLSFFYIMNLFYTWWVS | 25200
66 | MHIVVTLCYFMTYLKPRRKDIYQRVQRWLPKIWTKFWQEIKRNDSFSYVFVDK | 49500
67 | PSHRSVTPFLGQQQQLQSLVPLTPSALFGGANFNQSGNIADSSLSFTFTNSSN | 49800
68 | ILKRNMYFIIPLLLLLLGTVALAIYDTIWLLMRTYARGHLSHSHRFWSLLFYS | 55700
69 | PTRRSFSSAWFLCIRYFSLCSNIVVIVDTFGTFSYNVPMYGLSKKLLMWLACV | 47900
70 | LSGLFSGYLCLFVSGFHIVMTEGILVIGYLVSPVFLFFFPLPFIFVMFPLHFV | 76700
71 | KVERGREVRKKAREEREKRGATGGGRGKGRGKGKGKGRDGERGKSAAEEGAGA | 10800
72 | LGQLLLLLLLLLLLLLLLLLLLLLLLLLLLLLLRRRRRRWWWWRRLLILRIRR | 73200
73 | FRFQQCMTRAMTLIKMYFVGSLRALSLDVFKRLSEKDVSPTAQMHLLYTRFKT | 56200
74 | FNLNEILPLPASDFKLNTVTNLNEIDFTNIFTKSPHPHSGSTHPRQVFDQLDD | 51600
75 | MIDILFFVLFHFFDVLFFSLFCLFLCIILFSSLTFLIYYFFFFFLFFPFFGLF | 36500
76 | AGLTLPRTSDYSLFYYFLLWFTLFGLAMLFIIIHGIDYVSWPRLIPLTDIIYY | 17600
77 | AISKLGQIMLYILKCLGLLKVVRKDDQGRIVECNNLTLINLVLTYTGPLPERN | 46000
78 | APPPREGGARGGRGGRGRGEFRGGEGRGRGEGRESRGGEGRGRGGEGRGEFRG | 25900
79 | ERDRKEQNGGGEGGRGGRHKKGARGAERRGHGSGSEGGGKAGANPERRTGGRG | < 6570
